Results published in patent publication US10465009B2, “BCMA antigen binding proteins” (Amgen Inc., priority 2012, dated 2019).
Numbering of substitutions follows the chain as printed. Entries after “also recorded” stand apart in the source; their conditions may differ.

B1: 29C12.1 ADC (conjugate)
VH: EVQLLESGGALVQPGGSLRLSCAASGFTFSSYAMNWVRQAPGKGLEWVSAISVGGDTYYADSVKGRFTISRDNSKNTLYLQMNSLRAEDTAVYYCAKDQVTMVRGVWYYYGLDVWGQGTTVTVSS
VL: DIVMIQSPLSLPVTPGEPASISCRSSQSLLHSNGNNYLDWYLQKPGQSPHLLISLGSNRTSGVPDRFSGSGSGTDFTLKISRVEAEDVGVYYCMQALQPPRRFGQGTKLEIKR
B2: 37B2.1 ADC (conjugate)
VH: B1 VH with S31N, Q81H, M82V, R86S, T90S, M102L
VL: B1 VL with D1V, M4L, V90F
B3: 33C7.1 ADC (conjugate)
VH: B1 VH with Q81H, M82V, R86S, T90S, M102L
VL: B1 VL with D1V, M4L, V90F
B4: 29C12-MCC-DM1 (conjugate)
VH: B1 VH
VL: B1 VL
B5: 32B5.1 ADC (conjugate)
VH: B1 VH with Q81H, M82V, R86S, T90S, M102L
VL: B1 VL with D1V, M4L, V90F
B6: 40D7.1 ADC (conjugate)
VH: B1 VH
VL: B1 VL with Y37F, F67L, V90I, Q98R
B7: 35D2.1 ADC (conjugate)
VH: B1 VH with D56G, Q81H, M82V
VL: B1 VL with D1V, M4L, V90F
B8: 32B5-MCC-DM1 (conjugate)
VH: B1 VH with Q81H, M82V, R86S, T90S, M102L
VL: B1 VL with D1V, M4L, V90F
B9: 29C12: second campaign anti-huBCMA mAb, Vh SEQ ID NO:220, Vl SEQ ID NO:254 (antibody, V domains shown)
VH: B1 VH
VL: B1 VL

The molecules below were run on H929 cells (assay: CellTiter-Glo Luminescent Cell Viability Assay, H929). Conditions: not given.
Format: cell-based, human
Method: The ADCs were tested for the ability to target and kill BCMA-expressing myeloma cells. The CellTiter-Glo® Luminescent Cell Viability Assay is a homogeneous method to determine the number of viable cells in culture based on quantitation of the ATP present, which signals the presence of metabolically active cells. The CellTiter-Glo® Assay is applicable to cytotoxicity assays (see http://www.promega.com/products/cell-health-assays/cell-viability-assays/celltiterglo-luminescent-cell-viability-assay/ for more information). The cell viability assay was used to assess the relative killing capacity of various ADCs on various multiple myeloma cell lines and B-cell lines. The protocol provided in the Cell Titer-Glo kit (Promega G7572) was followed. In short, 5×10^3 target cells in 90 ul RPMI 1640, 10% FBS were aliquoted into clear, flat bottom, white walled 96 well plates (Costar #3903). The ADCs were diluted into a 10× stock to create 500 nM maytansine drug equivalents. Each ADC was serially diluted in 2-fold dilutions in RPMI 1640, 10% FBS starting with 500 nM stock. 10 ul of the 10×ADC dilution series was added to the 90 ul of cells in media (triplicate wells). The highest concentration of ADC was approximately 50 nM maytansine drug equivalents, and the lowest concentration of ADC was approximately 50 pM maytansine drug equivalents. An isotype control ADC (an anti-streptavidin huIgG1 conjugated to MCC-DM1) was included, as well as a media-only control. The plates were incubated at 37° C., 5% CO2 for 96 hours. After incubation, 100 ul of the Substrate Solution (Promega G7572) was added to each well. Luminescence was read on an EnVision™ Multilabel reader (PerkinElmer) or Analyst HT plate reader (LJL Biosciences). The data was analyzed and graphed using GraphPad Prism™ to determine the relative efficacy of the ADCs on various cancer cell lines.
The 2A1CV5-MCC-DM1, 32B5-MCC-DM1 and 29C12-MCC-DM1 ADCs were tested for the ability to target and kill BCMA-expressing myeloma cells (H929). The CellTiter-Glo® Luminescent Cell Viability Assay is a homogeneous method to determine the number of viable cells in culture based on quantitation of the ATP present, which signals the presence of metabolically active cells. The CellTiter-Glo® Assay is applicable to cytotoxicity assays (see http://www.promega.com/products/cell-health-assays/cell-viability-assays/celltiter_glo-luminescent-cell-viability-assay/ for more information). The cell viability assay was used to assess the relative killing capacity of various ADCs on various multiple myeloma cell lines and B-cell lines. The protocol provided in the Cell Titer-Glo kit (Promega G7572) was followed. In short, 5×10^3 target cells in 90 ul RPMI 1640, 10% FBS were aliquoted into clear, flat bottom, white walled 96 well plates (Costar #3903). The ADCs were diluted into a 10× stock to create 500 nM maytansine drug equivalents. Each ADC was serially diluted in 2-fold dilutions in RPMI 1640, 10% FBS starting with 500 nM stock. 10 ul of the 10×ADC dilution series was added to the 90 ul of cells in media (triplicate wells). The highest concentration of ADC was approximately 50 nM maytansine drug equivalents, and the lowest concentration of ADC was approximately 50 pM maytansine drug equivalents. An isotype control ADC (an anti-streptavidin huIgG1 conjugated to MCC-DM1) was included, as well as a media-only control. The plates were incubated at 37° C., 5% CO2 for 96 hours. After incubation, 100 ul of the Substrate Solution (Promega G7572) was added to each well. Luminescence was read on an EnVision™ Multilabel reader (PerkinElmer) or Analyst HT plate reader (LJL Biosciences). The data was analyzed and graphed using GraphPad Prism™ to determine the relative efficacy of the ADCs on various cancer cell lines.
In the case of B1, the “killing of huBCMA-expressing myeloma cells (H929)” value (shortened to “killing … (H929)”) is reported as “selectively killed huBCMA-expressing target cells; also recorded: showed cytotoxicity”. In the case of B2, the “killing … (H929)” value is reported as “selectively killed huBCMA-expressing target cells; also recorded: showed cytotoxicity”. With B3 the “killing … (H929)” value was “selectively killed huBCMA-expressing target cells; also recorded: showed cytotoxicity”. In the case of B4, the “killing … (H929)” value is reported as “able to target and kill BCMA-expressing myeloma cells (H929)”. For B5, the “killing … (H929)” value was “selectively killed huBCMA-expressing target cells; also recorded: showed cytotoxicity”. For B6, the “killing … (H929)” value was “selectively killed huBCMA-expressing target cells; also recorded: showed cytotoxicity”. B7 was tested, and the “killing … (H929)” value was “selectively killed huBCMA-expressing target cells; also recorded: showed cytotoxicity”. B8 was tested, and the “killing … (H929)” value was “able to target and kill BCMA-expressing myeloma cells (H929)”.

What follows are molecules tested on various cell lines (assay: Cell viability control: cell lines exposed to free DM1). Conditions: FIG. 13.
Format: cell-based, human
Method: The ADCs were tested for the ability to target and kill BCMA-expressing myeloma cells. The CellTiter-Glo® Luminescent Cell Viability Assay is a homogeneous method to determine the number of viable cells in culture based on quantitation of the ATP present, which signals the presence of metabolically active cells. The CellTiter-Glo® Assay is applicable to cytotoxicity assays (see http://www.promega.com/products/cell-health-assays/cell-viability-assays/celltiterglo-luminescent-cell-viability-assay/ for more information). The cell viability assay was used to assess the relative killing capacity of various ADCs on various multiple myeloma cell lines and B-cell lines. The protocol provided in the Cell Titer-Glo kit (Promega G7572) was followed. In short, 5×10^3 target cells in 90 ul RPMI 1640, 10% FBS were aliquoted into clear, flat bottom, white walled 96 well plates (Costar #3903). The ADCs were diluted into a 10× stock to create 500 nM maytansine drug equivalents. Each ADC was serially diluted in 2-fold dilutions in RPMI 1640, 10% FBS starting with 500 nM stock. […] Luminescence was read on an EnVision™ Multilabel reader (PerkinElmer) or Analyst HT plate reader (LJL Biosciences). The data was analyzed and graphed using GraphPad Prism™ to determine the relative efficacy of the ADCs on various cancer cell lines. […]
With `COc1cc2cc(c1Cl)N(C)C(=O)C[C@H](OC(=O)[C@H](C)N(C)C(=O)CCS)[C@]1(C)O[C@H]1[C@H](C)[C@@H]1C[C@@](O)(NC(=O)O1)[C@H](OC)/C=C/C=C(\C)C2` [DM1] the “killing of cell lines by free drug” value was “killed by free DM1”.

Each molecule was assayed against T1, [6x Histidine-SUMO]-huBCMA (SEQ ID NO:350) and carboxy terminal clipped forms (Homo sapiens, UniProt Q02223) (assay: Size exclusion chromatography and LC/MS of antibody complexes with Sumo-huBCMA and its clipped forms). Conditions: SEC.
T1 construct: GGS-G3 linker + Avi tag (lost in the clipped species) (C); made in house
T1 sequence (Q02223 5-54): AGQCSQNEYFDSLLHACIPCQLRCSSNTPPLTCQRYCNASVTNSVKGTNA
Format: binding
Excerpt: To determine which forms of 6×His-SUMO-huBCMA were bound to the anti-huBCMA antibodies, the SEC fractions were isolated and analyzed. Carboxy-terminus fragments of the extracellular domain of human BCMA were generated as clipped forms from the rhuBCMA fusion protein (6×His::Sumo::huBCMA(aa 5-51)::GGS::G3::Avi) of SEQ ID NO:350, as shown in FIG. 45.
A Superdex 200™ 10/30 cm SEC column (GE Healthcare Life Sciences) was used according to the manufacturer's recommendations and run in phosphate buffered saline (PBS). Incubations of antibody with excess levels of sumoBCMA were performed at room temperature for at least 30 minutes.
A Superdex 200™ 10/30 cm SEC column (GE Healthcare Life Sciences) was used according to the manufacturer's recommended condision and run in phosphate buffered saline (PBS). Incubations of antibody with excess levels of sumoBCMA were performed at room temperature for at least 30 minutes.
5 ug of total proteins were reduced in 50 mM Tris/4 M guanidine/9 mM DTT, pH 8.0 at 55° C. for 15 min, and analyzed in Agilent LCTOF system using a Vydac C8 column, 2.1 mm ID×150 mm, […] particle size. […] TOF MS conditions included capillary voltage of 4000 V, drying gas flow at 10 L/min, dry gas temperature at 300° C., nebulizer gas flow at 40 L/min, and fragmentor voltage of 300 V. MS data was analyzed in Agilent MassHunter™ Qualitative Analysis program.
B9 was tested, and the “binding to full-length and truncated forms of huBCMA” value was “bound full-length and truncated forms of BCMA; also recorded: bound all forms of human BCMA”.
